Assay results reported in IntAct's records for PubMed 16888623.

B1: Mucin-1 (Homo sapiens), P15941-12 (parent)
chain: MTPGTQSPFFLLLLLTVLTATTAPKPATVVTGSGHASSTPGGEKETSATQRSSVPSSTEKNAFNSSLEDPSTDYYQELQRDISEMAVCQCRRKNYGQLDIFPARDTYHPMSEYPTYHTHGRYVPPSSTDRSPYEKVSAGNGGSSLSYTNPAVAATSANL

Variants of: B1
Details: with abl1_human ABL1, P00519
Sequence of abl1_human ABL1, P00519 (P00519 whole entry): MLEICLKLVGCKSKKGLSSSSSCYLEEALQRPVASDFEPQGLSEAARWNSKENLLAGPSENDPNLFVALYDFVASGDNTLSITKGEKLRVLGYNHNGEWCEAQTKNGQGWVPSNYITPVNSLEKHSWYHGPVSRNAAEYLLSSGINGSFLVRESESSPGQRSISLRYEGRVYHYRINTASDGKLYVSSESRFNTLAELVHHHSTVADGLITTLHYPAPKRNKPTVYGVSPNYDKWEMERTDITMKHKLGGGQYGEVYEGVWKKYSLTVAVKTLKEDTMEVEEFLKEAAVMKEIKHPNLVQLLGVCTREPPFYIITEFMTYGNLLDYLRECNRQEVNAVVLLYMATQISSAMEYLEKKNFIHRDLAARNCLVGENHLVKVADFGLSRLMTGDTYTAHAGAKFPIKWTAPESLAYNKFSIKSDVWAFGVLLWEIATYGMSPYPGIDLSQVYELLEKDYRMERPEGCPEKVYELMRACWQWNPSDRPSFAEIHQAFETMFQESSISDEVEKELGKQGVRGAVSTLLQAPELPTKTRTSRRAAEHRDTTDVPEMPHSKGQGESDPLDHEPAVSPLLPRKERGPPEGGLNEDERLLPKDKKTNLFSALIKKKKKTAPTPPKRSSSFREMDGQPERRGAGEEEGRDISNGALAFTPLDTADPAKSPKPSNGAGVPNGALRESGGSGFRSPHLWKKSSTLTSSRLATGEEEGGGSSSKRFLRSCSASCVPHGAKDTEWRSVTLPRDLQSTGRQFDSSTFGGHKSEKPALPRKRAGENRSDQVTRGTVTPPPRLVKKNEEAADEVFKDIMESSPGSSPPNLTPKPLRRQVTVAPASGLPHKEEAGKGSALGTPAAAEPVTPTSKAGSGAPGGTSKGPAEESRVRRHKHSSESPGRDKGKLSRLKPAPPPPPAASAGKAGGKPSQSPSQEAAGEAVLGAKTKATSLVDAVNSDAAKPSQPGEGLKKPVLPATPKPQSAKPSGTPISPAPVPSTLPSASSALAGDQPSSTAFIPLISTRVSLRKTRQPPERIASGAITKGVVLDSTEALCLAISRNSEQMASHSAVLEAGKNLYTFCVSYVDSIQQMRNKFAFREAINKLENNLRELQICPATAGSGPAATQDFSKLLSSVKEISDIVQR

Row | effect of a mutation on the interaction | Variant
1 | disrupting interaction | Y147F
